For three molecules, Trimeric HA Binding: RLU results are on record in US20150086555A1.

Common to all, as to conditions: remark: other sources report otherwise
Assay [1] has as its target recombinant homotrimeric HA A/South Carolina/1/18 H1N1 (Influenza A virus A/South Carolina/1/18 (H1N1)). In words: protein microarray, purified IgG, trimeric HA.
The target of assay [2] is recombinant homotrimeric HA A/Hong Kong/2108/03 H9N2 (Influenza A virus A/HK/2108/2003(H9N2)). The assay can be described thus: protein microarray, purified IgG, trimeric HA.
Assay [3] addresses recombinant homotrimeric HA A/Japan/305/57 H2N2 (Influenza A virus A/Japan/305/1957(H2N2)). The assay can be described thus: protein microarray, purified IgG, trimeric HA.
For assay [4], the target named is recombinant homotrimeric HA A/Solomon Islands/3/06 H1N1 (Influenza A virus A/Solomon Islands/3/2006(H1N1)). In words: protein microarray, purified IgG, trimeric HA.
In assay [5] the target is recombinant homotrimeric HA A/Netherlands/219/03 H7N7 (Influenza A virus A/Netherlands/219/03(H7N7)). In words: protein microarray, purified IgG, trimeric HA.
Assay [6] addresses recombinant homotrimeric HA A/Hong Kong/1073/99 H9N2 (Influenza A virus A/Hong Kong/1073/99 (H9N2)). The assay can be described thus: protein microarray, purified IgG, trimeric HA.
In assay [7] the target is recombinant homotrimeric HA A/chicken/Vietnam/NCVD-016/08 H5N1 (Influenza A virus A/chicken/Vietnam/NCVD-016/2008(H5N1)). The assay can be described thus: protein microarray, purified IgG, trimeric HA.
For assay [8], the target named is recombinant homotrimeric HA A/Egypt/3300-NAMRU3/08 H5N1 (Influenza A virus A/Egypt/3300-NAMRU3/2008(H5N1)). The assay can be described thus: protein microarray, purified IgG, trimeric HA.
Assay [9] concerns the target recombinant homotrimeric HA A/Wisconsin/67/05 H3N2 (Influenza A virus A/Wisconsin/67/2005(H3N2)). The assay can be described thus: protein microarray, purified IgG, trimeric HA.
The target in assay [10] is recombinant homotrimeric HA A/California/4/09 H1N1 (Influenza A virus A/California/04/2009(H1N1)). In words: protein microarray, purified IgG, trimeric HA.
Assay [11] has as its target recombinant homotrimeric HA A/northern shoveler/California/HKWF115/07 H6N4 (Influenza A virus A/northern shoveler/California/HKWF115/2007(H6N1)). The assay can be described thus: protein microarray, purified IgG, trimeric HA.
The target of assay [12] is recombinant soluble homotrimeric HA, A/South Carolina/1/18 H1N1 (Influenza A virus A/South Carolina/1/18 (H1N1)). In words: microarray, transfection SN IgG, trimeric HA.
Assay [13] has as its target recombinant soluble homotrimeric HA, A/Solomon Islands/3/06 H1N1 (Influenza A virus A/Solomon Islands/3/2006(H1N1)). The assay can be described thus: microarray, transfection SN IgG, trimeric HA.
For assay [14], the target named is recombinant soluble homotrimeric HA, A/California/4/09 H1N1 (Influenza A virus A/California/04/2009(H1N1)). In words: microarray, transfection SN IgG, trimeric HA.
Assay [15] deals with recombinant soluble homotrimeric HA, A/Netherlands/219/03 H7N7 (Influenza A virus A/Netherlands/219/03(H7N7)). In words: microarray, transfection SN IgG, trimeric HA.
The target of assay [16] is recombinant soluble homotrimeric HA, A/northern shoveler/California/HKWF115/07 H6N4 (Influenza A virus A/northern shoveler/California/HKWF115/2007(H6N1)). The assay can be described thus: microarray, transfection SN IgG, trimeric HA.
The target of assay [17] is recombinant soluble homotrimeric HA, A/swine/Ontario/01911-2/99 H4N6 (Influenza A virus A/Swine/Ontario/01911-2/99 (H4N6)). In words: microarray, transfection SN IgG, trimeric HA.
The target in assay [18] is recombinant soluble homotrimeric HA, A/Wisconsin/67/05 H3N2 (Influenza A virus A/Wisconsin/67/2005(H3N2)). The assay can be described thus: microarray, transfection SN IgG, trimeric HA.
For assay [19], the target named is recombinant soluble homotrimeric HA, A/Japan/305/57 H2N2 (Influenza A virus A/Japan/305/1957(H2N2)). In words: microarray, transfection SN IgG, trimeric HA.
Assay [20] concerns the target recombinant soluble homotrimeric HA, A/Egypt/3300-NAMRU3/08 H5N1 (Influenza A virus A/Egypt/3300-NAMRU3/2008(H5N1)). The assay can be described thus: microarray, transfection SN IgG, trimeric HA.
In assay [21] the target is recombinant soluble homotrimeric HA, A/chicken/Vietnam/NCVD-016/08 H5N1 (Influenza A virus A/chicken/Vietnam/NCVD-016/2008(H5N1)). In words: microarray, transfection SN IgG, trimeric HA.
Assay [22] has as its target recombinant homotrimeric HA A/Anhui/1/05 H5N1 (Influenza A virus A/Anhui/1/2005(H5N1)). The assay can be described thus: protein microarray, purified IgG, trimeric HA.
For assay [23], the target named is recombinant homotrimeric HA A/Vietnam/1203/04 H5N1 (Influenza A virus A/VietNam/1203/2004(H5N1)). The assay can be described thus: protein microarray, purified IgG, trimeric HA.
Assay [24] concerns the target recombinant homotrimeric HA A/Indonesia/5/05 H5N1 (Influenza A virus A/Indonesia/5/2005(H5N1)). The assay can be described thus: protein microarray, purified IgG, trimeric HA.
For assay [25], the target named is recombinant homotrimeric HA A/duck/Yangzhou/02/05 H8N4 (Influenza A virus A/duck/Yangzhou/02/2005(H8N4)). In words: protein microarray, purified IgG, trimeric HA.
Assay [26] deals with T1, recombinant soluble homotrimeric HA of A/Vietnam/1203/04 (H5N1) (Influenza A virus A/VietNam/1203/2004(H5N1)). In words: HA microarray, BCC supernatant.
Assay [27] deals with recombinant soluble homotrimeric HA of A/Indonesia/5/05 (H5N1) (Influenza A virus A/Indonesia/5/2005(H5N1)). The assay can be described thus: HA microarray, BCC supernatant.
For assay [28], the target named is recombinant soluble homotrimeric HA of A/Wisconsin/67/05 (H3N2) (Influenza A virus A/Wisconsin/67/2005(H3N2)). The assay can be described thus: HA microarray, BCC supernatant.
Assay [29] deals with recombinant soluble homotrimeric HA of A/South Carolina/1/18 (H1N1) (Influenza A virus A/South Carolina/1/18 (H1N1)). The assay can be described thus: trimeric HA microarray, transfection supernatant set 5.
Assay [30] concerns the target T1, recombinant soluble homotrimeric HA of …. Described as above.
The target in assay [31] is recombinant soluble homotrimeric HA of A/chicken/Vietnam/NCVD-016/08 (H5N1) (Influenza A virus A/chicken/Vietnam/NCVD-016/2008(H5N1)). The description is as above.
In assay [32] the target is recombinant soluble homotrimeric HA of A/swine/Ontario/01911-2/99 (H4N6) (Influenza A virus A/Swine/Ontario/01911-2/99 (H4N6)). The assay can be described thus: HA microarray, BCC supernatant.
For assay [33], the target named is recombinant soluble homotrimeric HA of A/Japan/305/57 (H2N2) (Influenza A virus A/Japan/305/1957(H2N2)). The assay can be described thus: HA microarray, BCC supernatant.
Assay [34] deals with recombinant soluble homotrimeric HA of A/duck/Yangzhou/02/05 (H8N4) (Influenza A virus A/duck/Yangzhou/02/2005(H8N4)). The assay can be described thus: HA microarray, BCC supernatant.
Assay [35] concerns the target recombinant soluble homotrimeric HA of A/Solomon Islands/3/06 (H1N1) (Influenza A virus A/Solomon Islands/3/2006(H1N1)). The assay can be described thus: HA microarray, BCC supernatant.
Assay [36] deals with recombinant soluble homotrimeric HA of A/California/4/09 (H1N1) (Influenza A virus A/California/04/2009(H1N1)). In words: HA microarray, BCC supernatant.
Assay [37] addresses recombinant soluble homotrimeric HA of A/Netherlands/219/03 (H7N7) (Influenza A virus A/Netherlands/219/03(H7N7)). In words: HA microarray, BCC supernatant.
The target in assay [38] is recombinant soluble homotrimeric HA, A/duck/Yangzhou/02/05 H8N4 (Influenza A virus A/duck/Yangzhou/02/2005(H8N4)). In words: microarray, transfection SN IgG, trimeric HA.

B1: TCN-558 (5248_H10b) (antibody, V domains shown)
VH: QVQLVQSGSEVKKPGTSVKVSCTASGSVFTNYGISWVRQAPGQGLEWMGGIIPLFGAAKYAQKFQGRVTITADESTKTVYMELSRLTSKDTAIYFCAKAPRVYEYYFDQWGQGTPVTVSS
VL: EIVMTQFPATLSVSPGERVTLSCRASQSVSNNLAWYQQKPGQPPRLLIYDASTRATGVPAKFSGTGSGTEFTLSISSLQSEDFAVYYCQQYHNWPPSYSFGLGTKLEIK
Take B1: the Trimeric HA Binding: RLU was 13600 RLU in assay [1]; 257 RLU in assay [2]; 27200 RLU in [3]; 22000 RLU in assay [4]; 623 RLU in assay [5]; 4380 RLU in assay [6]. Also, the Trimeric HA Binding: RLU in assay [7] amounted to 9730 RLU; in assay [8] it was 25500 RLU; in assay [9], 320 RLU; in assay [10], 24700 RLU; in [11], 12300 RLU; in assay [12], 40700 RLU. For the same molecule, the Trimeric HA Binding: RLU in [13] turned out to be 36100 RLU; in assay [14], 20200 RLU; in assay [15] it was 5840 RLU; in assay [16], 29400 RLU; in assay [17], 10000 RLU; in assay [18], 26600 RLU. The Trimeric HA Binding: RLU in [19] was found to be 34400 RLU; in assay [20], 21900 RLU; in assay [21], 33400 RLU.

B2: TCN-541 (5062_M11) (antibody, V domains shown)
VH: QVQLQESGPGLVKPSETLSLTCTVSGGSINSYYWNWIRQPPGKGLEWIGYIYHSGSTNYNPSLKSRVTISVDTSKNQFSLQLSSVTAADTAVYYCARLRTDYGDPDSVYYYGMDVWGQGTTVTVSS
VL: SYELTQPPSVSVSPGQTARITCSGDALPKQNAYWYQQKPGQAPVLLIYKDSERPSGIPERFSGSSSGTTVTLTISGVQAEDEADYYCQSADSSGTSWVFGGGTKLTVL
With B2, the Trimeric HA Binding: RLU was 192 RLU in assay [1]; 970 RLU in [22]; 175 RLU in [2]; 934 RLU in [3]; 1150 RLU in [23]; 791 RLU in assay [8]. Besides, the Trimeric HA Binding: RLU in assay [10] turned out to be 348 RLU; in assay [24] it was 160 RLU; in [25], 352 RLU; in assay [26] it was 43 RLU; in [27] it was 30 RLU; in assay [28] it was 2920 RLU. In addition, the values for the Trimeric HA Binding: RLU in [29], in [30] and in assay [31] were 2580 RLU, 45500 RLU and 11000 RLU, respectively.

B3: TCN-548 (5092_P01) (antibody, V domains shown)
VH: QVQLQESGPGLVKPSETLSLTCTVSSGPMSDYYWSWIRQPPGKGLEWIGHVSVSHGGRTKSNPSVMSRVTISVETSKNQFSLKLTSVTAADTAVYYCARLNYYDRSGYHSPDGPSNNWFDPWGQGTLVTVSS
VL: not shown
Turning to B3, the Trimeric HA Binding: RLU is 240 RLU in assay [32]; 416 RLU in assay [33]; 184 RLU in [34]; 283 RLU in assay [35]; 234 RLU in assay [36]; 758 RLU in assay [37]. The Trimeric HA Binding: RLU in assay [12] amounted to 1150 RLU; in assay [13], 750 RLU; in assay [14], 818 RLU; in assay [15] it was 2130 RLU; in assay [16] it was 2100 RLU; in assay [17], 1620 RLU. Moreover, the Trimeric HA Binding: RLU in [19] was 1020 RLU; in [21], 1060 RLU; in assay [38], 5740 RLU.
